The experiment addresses PD-1 (programmed death 1) on peripheral CD4 T cells of treated subjects (human) (UniProt Q15116). In words: flow cytometry of free PD-1 on CD4 T cells of subjects after IV MEDI5752 (receptor occupancy, in vivo dosing >225 mg). A general note: Flow cytometry measures light scatter and fluorescence of single cells or particles in a stream.

Some results are limits rather than exact numbers.

Sequence of UniProt Q15116 (Q15116 25-288): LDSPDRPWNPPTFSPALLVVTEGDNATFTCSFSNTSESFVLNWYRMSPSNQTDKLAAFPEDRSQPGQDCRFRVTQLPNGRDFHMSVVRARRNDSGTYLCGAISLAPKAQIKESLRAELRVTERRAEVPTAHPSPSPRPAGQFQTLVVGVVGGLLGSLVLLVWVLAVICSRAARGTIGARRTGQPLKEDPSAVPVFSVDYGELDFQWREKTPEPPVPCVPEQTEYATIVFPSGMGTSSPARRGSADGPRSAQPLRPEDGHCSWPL

In turn, MEDI5752 (bispecific antibody) gave a peripheral PD-1 receptor occupancy of over 90%.

The values above are taken from patent EP4810056A2.
